Laboratory results: patent US20230363362A1, “GENETICALLY MODIFIED NON-HUMAN ANIMAL WITH HUMAN OR CHIMERIC GLP1R” (Biocytogen Pharmaceuticals (Beijing) Co., Ltd., priority 2020, published 2023)

Experiments:
human GLP1R [1] = target: T1, human GLP1R (Homo sapiens, UniProt P43220); assay: In vivo drug efficacy experiment (Example 2), GLP1R gene humanized homozygous mice; parameters: species or system mouse
T1 construct: 61-1452; 1-463; expressed in transfected cells; host or cells: GLP1R gene humanized homozygous mice (C57BL/6 ES cells); The human CDS is inserted into mouse exon 1 at the endogenous Glp1r locus, under mouse regulatory elements
Procedure: (§1) Ten 7-week-old male wild-type C57BL/6 mice (WT) and ten GLP1R gene humanized homozygous mice (H/H) were selected, and randomly divided (according to body weight) into control group (G1, G3) and administration Group (G2, G4). The control group was injected subcutaneously (s.c.) phosphate buffered saline (PBS). The administration group was injected subcutaneously with 10 mg/kg GLP1R agonist Dulaglutide, administered once every two days, with a total of 5 administrations. Before each administration, the body weight and non-fasting blood glucose concentration of the mice were measured. After the second and fourth doses, the mice were fasted overnight, and the glucose tolerance test (IPGTT) was used to evaluate the tolerance of the mice to glucose by intraperitoneal injection of 2 g/kg glucose D-Glucose. Blood was collected to determine the blood glucose value at 15 min, 30 min, 60 min, 120 min after injection, and the area under the curve (AUC) was calculated.

human GLP1R [2] = target: T1, human GLP1R; conditions: background statement, no test described; cited from earlier work
mouse GLP1R [3] = target: T2, mouse GLP1R (Mus musculus, UniProt O35659); assay: High-fat diet induced obesity model (Example 3), wild-type C57BL/6 mice; type: in vivo; parameters: Ten 7-week-old male wild-type C57BL/6 mice (WT); endogenous in cells; host or cells: wild-type C57BL/6 mice (whole animal, in vivo)
T2 sequence (O35659 22-463): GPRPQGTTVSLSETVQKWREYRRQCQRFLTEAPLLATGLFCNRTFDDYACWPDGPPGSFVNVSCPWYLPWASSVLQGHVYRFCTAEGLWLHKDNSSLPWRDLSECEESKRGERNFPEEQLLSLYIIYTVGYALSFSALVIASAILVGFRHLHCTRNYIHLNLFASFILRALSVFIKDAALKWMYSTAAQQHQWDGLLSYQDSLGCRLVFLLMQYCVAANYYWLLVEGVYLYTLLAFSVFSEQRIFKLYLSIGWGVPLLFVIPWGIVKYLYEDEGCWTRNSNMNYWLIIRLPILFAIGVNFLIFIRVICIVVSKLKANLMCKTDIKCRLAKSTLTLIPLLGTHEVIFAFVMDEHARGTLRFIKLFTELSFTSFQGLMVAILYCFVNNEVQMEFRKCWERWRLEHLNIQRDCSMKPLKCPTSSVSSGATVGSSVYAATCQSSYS
Procedure: (§2) Twenty 7-week-old male wild-type C57BL/6 mice (WT) and twenty GLP1R humanized homozygous mice (I/H) were selected. All mice were given a high-fat diet for 12 weeks to induce obesity and high blood sugar.
(§3) On the 13th week, the mice were grouped and administered either Dulaglutide or PBS according to Table 5. The day of grouping was recorded as DO, the next day was recorded as D1, and so on for calculation. When a mouse lost more than 20% of its body weight, it was euthanized to end the experiment. The administration group was given 1 mg/kg Dulaglutide by subcutaneous injection (sc), and the control group was given the same dose of control PBS, once every two days, with a total of 5 administrations. The test protocol is as follows: the random blood glucose (RBG) concentration and body weight were measured before each administration; the mice were fasted after the second administration, and the glucose tolerance test ([…]) was carried out the next day (protocol: after the fasting blood glucose was tested, 2 g/kg D-glucose was injected intraperitoneally, and blood glucose was measured at 15 min, 30 min, 60 min and 120 min after injection; the glucose solution was prepared at the ratio of 20% mass fraction, the administration dose was 10 ul/g body weight, and the solvent was physiological saline). After the fourth administration, the mice were fasted, and the fasting blood glucose was measured on the second day; blood was collected from the canthus within 48 hours after the last administration, and the supernatant was obtained by centrifugation. The levels of serum glucagon and insulin were determined by ELISA.

mouse GLP1R [4] = target: T2, mouse GLP1R; conditions: background statement, no test described; cited from earlier work
mouse GLP1R [5] = target: T2, mouse GLP1R; assay: In vivo drug efficacy experiment (Example 2), wild-type C57BL/6 mice; parameters: Ten 7-week-old male wild-type C57BL/6 mice (WT); endogenous in cells; host or cells: wild-type C57BL/6 mice (whole animal, in vivo)
Procedure: as §1

human GLP1R [6] = target: T1, human GLP1R; assay: High-fat diet induced obesity model (Example 3), GLP1R humanized homozygous mice; type: in vivo, mouse; conditions: G4 GLP1R humanized
Procedure: as §2, §3

T1 sequence (P43220 24-463): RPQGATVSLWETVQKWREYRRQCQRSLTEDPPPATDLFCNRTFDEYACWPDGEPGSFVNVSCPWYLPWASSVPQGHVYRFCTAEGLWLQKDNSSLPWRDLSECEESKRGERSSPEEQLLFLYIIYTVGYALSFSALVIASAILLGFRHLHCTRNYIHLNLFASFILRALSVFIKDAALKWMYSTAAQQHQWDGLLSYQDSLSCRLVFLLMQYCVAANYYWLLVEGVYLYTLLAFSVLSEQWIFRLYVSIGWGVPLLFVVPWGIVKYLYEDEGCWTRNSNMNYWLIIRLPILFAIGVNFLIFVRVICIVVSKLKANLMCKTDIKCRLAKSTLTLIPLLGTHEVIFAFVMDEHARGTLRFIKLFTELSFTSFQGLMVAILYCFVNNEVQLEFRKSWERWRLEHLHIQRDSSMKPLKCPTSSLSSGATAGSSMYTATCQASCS

With Dulaglutide the “body weight during the experiment” value (human GLP1R [1]; G4, H/H mice, s.c. Q2d x 5, 10 mg/kg / 1 mg/kg (Table 5), FIG. 11) was “remained stable and did not change significantly”, the fasting blood glucose (human GLP1R [1]; G4 H/H vs PBS control G3, fasted overnight, s.c. Q2d x 5, FIG. 13) was “reduced” and the non-fasting blood glucose (human GLP1R [1]; G4 H/H vs PBS control G3, s.c. Q2d x 5, 10 mg/kg / 1 mg/kg (Table 5), FIG. 12) was “reduced”. The “area under the curve (AUC) of IPGTT” value (human GLP1R [1]; H/H mice, 2 g/kg D-Glucose i.p., blood glucose 15-120 min, P≤0.05, FIG. 15) was “significant downward trend”, the “affinity for human GLP1R” value (human GLP1R [2]) was “has affinity” and the body weight (mouse GLP1R [3]; G2 C57BL/6, high-fat diet 12 weeks, 1 mg/kg s.c. Q2d*5, vs PBS control, FIG. 23) was “decreased more significantly”. The “blood glucose (non-fasting)” value (mouse GLP1R [3]; G2 C57BL/6, high-fat diet, 1 mg/kg s.c. Q2d*5, FIG. 25) was “significantly reduced”, the “food intake in the 24 hours after the first administration” value (mouse GLP1R [3]; G2 C57BL/6, high-fat diet, 1 mg/kg s.c., vs control group, FIG. 24B) was “significantly lower” and the “plasma levels of glucagon” value (mouse GLP1R [3]; G2 C57BL/6, high-fat diet, 24 hours after the drug administration, FIG. 28) was “decreased”. For the same substance, the “level of glucagon-like peptide-1” value (mouse GLP1R [3]; G2 C57BL/6, high-fat diet, 24 hours after the drug administration, FIG. 29) was “significantly increased”, the insulin level (mouse GLP1R [3]; G2 C57BL/6, high-fat diet, Day 10, 15 min time point, vs control group, FIG. 27) was “tendency to increase” and the “glucose tolerance (glucose tolerance test)” value (mouse GLP1R [3]; G2 C57BL/6, high-fat diet, after second administration, fasted, 2 g/kg D-glucose i.p., FIG. 26) was “significantly improve”. For the same substance, the “affinity for mouse GLP1R” value (mouse GLP1R [4]) was “has affinity”, the “body weight during the experiment” value (mouse GLP1R [5]; G2, WT C57BL/6 mice, s.c. Q2d x 5, 10 mg/kg / 1 mg/kg (Table 5), FIG. 11) was “remained stable and did not change significantly” and the fasting blood glucose (mouse GLP1R [5]; G2 WT vs PBS control G1, fasted overnight, s.c. Q2d x 5, FIG. 13) was “reduced”. The non-fasting blood glucose (mouse GLP1R [5]; G2 WT vs PBS control G1, s.c. Q2d x 5, 10 mg/kg / 1 mg/kg (Table 5), FIG. 12) was “reduced”, the “area under the curve (AUC) of IPGTT” value (mouse GLP1R [5]; WT mice, 2 g/kg D-Glucose i.p., blood glucose 15-120 min, P≤0.05, FIG. 15) was “significant downward trend” and the body weight (human GLP1R [6]; high-fat diet 12 weeks, 1 mg/kg s.c. Q2d*5, vs PBS control, FIG. 23) was “decreased more significantly”. The “blood glucose (non-fasting)” value (human GLP1R [6]; high-fat diet, 1 mg/kg s.c. Q2d*5, FIG. 25) was “significantly reduced”, the “food intake in the 24 hours after the first administration” value (human GLP1R [6]; high-fat diet, 1 mg/kg s.c., vs control group, FIG. 24B) was “significantly lower” and the “plasma levels of glucagon” value (human GLP1R [6]; high-fat diet, 24 hours after the drug administration, FIG. 28) was “decreased, and the decrease was more obvious”. The “level of glucagon-like peptide-1” value (human GLP1R [6]; high-fat diet, 24 hours after the drug administration, FIG. 29) was “significantly increased”, the insulin level (human GLP1R [6]; high-fat diet, Day 10, 15 min time point, vs control group, FIG. 27) was “tendency to increase” and the “glucose tolerance (glucose tolerance test)” value (human GLP1R [6]; high-fat diet, after second administration, fasted, 2 g/kg D-glucose i.p., FIG. 26) was “significantly improve”.
